Results from article PMC10419091.

Experiments:
[1] = viscosimetry; falling-ball micro-viscometer, 20 °C; Tpm 2 mg/mL in 30 mM Hepes-Na pH 7.3, 100 mM NaCl, 4 mM DTT; viscosity over buffer viscosity; end-to-end interaction of adjacent Tpm molecules; conditions: other: viscosimetry
[2] = target: filamentous actin (F-actin) from rabbit m. psoas (rabbit) (UniProt P68135); assay: temperature dependence of light scattering; thermally induced dissociation of Tpm from phalloidin-stabilized F-actin; 20 µM F-actin, 10.5 µM Tpm, 30 mM Hepes-Na pH 7.3, 100 mM NaCl; light scattering at 90°, 350 nm, heating 1 °C/min; Tdiss: temperature of a 50% decrease
[3] = target: filamentous actin (F-actin) from rabbit m. psoas (rabbit) (UniProt P68135); assay: co-sedimentation; 10 µM F-actin with 0.5 to 7.5 µM Tpm in 30 mM Hepes-Na pH 7.3, 200 mM NaCl; 40 min at 25 °C, then 40 min at 100,000 g at 4 °C; supernatants and pellets by SDS-PAGE; apparent affinity (K50%: Tpm concentration at which half of the actin is saturated)

Tdiss [2] [°C]	K50% [3] [µM]	Substance	viscosity after subtraction of the buffer viscosity [1] [mPa∙s]
		human E98K Tpm1.1 mutant (cardiac tropomyosin 1.1 with Glu98Lys), recombinant, with Ala-Ser N-terminal extension	0.28 ± 0.01
42.4	2.57	human E98K Tpm1.1 mutant (cardiac tropomyosin 1.1 with Glu98Lys), recombinant, with Ala-Ser N-terminal extension (natural protein)	
		wild-type cardiac tropomyosin 1.1 isoform (Tpm1.1), recombinant, with Ala-Ser N-terminal extension	0.31 ± 0.01
45.5	2.45	wild-type cardiac tropomyosin 1.1 isoform (Tpm1.1), recombinant, with Ala-Ser N-terminal extension (natural protein)	
